Test results published in patent US20220259289A1 (Janssen / Centocor, published 2022).

What was measured:
Assay in all cases: ELISA, bacterial lysate on plate-bound antigen, luminescence
human serum albumin = target: T1, human serum albumin (human, UniProt P02768 25-609)
T1 construct: Negative control antigen of the screening ELISA; also called HSA
Protocol: (§1) Streptavidin-coated Maxisorp plates (Nunc catalog 436110) were blocked for 1 h in Starting Block T20 (Pierce) and then coated with biotinylated CD137 (using same antigen as in panning) or negative controls (an unrelated Fc-fused recombinant protein and human serum albumin) for 1 h. Plates were rinsed with TBST and diluted lysate was applied to plates for 1 h. Following additional rinses, wells were treated with HRP-conjugated anti-Centyrin antibody (PAB25) for 1 h and then assayed with POD (Roche catalog 11582950001).

[1] = target: T2, recombinant biotinylated human CD137 protein (Fc-fusion protein, R&D Systems 838-4B) (human, UniProt Q07011 24-186, biotinylated (site not stated))
T2 construct: Bought Fc fusion; The ELISA used the same antigen as the panning; also called CD137-Fc; biotinylated CD137; not shown: Fc part of the bought fusion protein
Protocol: as §1

[2] = target: unrelated Fc-fused recombinant protein (negative control)

T1 sequence (P02768 25-609 limits assumed): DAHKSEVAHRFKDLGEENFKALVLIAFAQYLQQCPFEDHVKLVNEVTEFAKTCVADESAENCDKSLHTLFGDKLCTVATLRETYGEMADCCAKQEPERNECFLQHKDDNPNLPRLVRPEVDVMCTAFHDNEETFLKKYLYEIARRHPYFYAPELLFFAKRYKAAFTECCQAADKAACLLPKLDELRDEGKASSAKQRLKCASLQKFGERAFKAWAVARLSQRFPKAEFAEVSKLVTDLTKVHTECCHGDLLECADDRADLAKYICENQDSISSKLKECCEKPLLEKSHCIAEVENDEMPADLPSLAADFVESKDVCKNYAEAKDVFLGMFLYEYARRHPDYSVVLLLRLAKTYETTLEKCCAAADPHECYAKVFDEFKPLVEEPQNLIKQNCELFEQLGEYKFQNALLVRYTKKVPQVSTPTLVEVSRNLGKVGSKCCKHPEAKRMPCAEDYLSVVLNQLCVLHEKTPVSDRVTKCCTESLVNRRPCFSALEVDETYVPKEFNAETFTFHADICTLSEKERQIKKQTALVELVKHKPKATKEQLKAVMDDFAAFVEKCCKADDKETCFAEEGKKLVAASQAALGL

| Binder | ELISA HSA (RLU) (human serum albumin) | ELISA CD137-Fc (RLU) [1] | ELISA Fc Control (RLU) [2] |
| --- | --- | --- | --- |
| ISOP120ER5P1A7 (designed binder, not shown: small tags and cut ends, FN3 domain (Centyrin); tested as E. coli lysate) LPAPKNLVVSRVTEDSARLSWTAPDAAFDSFNIGYYERIIPGEAIVLTVPGSERSYDLTGLKPGTEYSVLICGVKGGKGSIPLSAIFTT | 400 RLU | 1.11e+06 RLU | 400 RLU |
| ISOP120BR5P1F1 (designed binder, not shown: small tags and cut ends, FN3 domain (Centyrin); tested as E. coli lysate) LPAPKNLVVSRVTEDSARLSWTFHPTFEGFDSFLIQYQESEKVGEAIVLTVPGSERSYDLTGLKPGTEYTVSIYGVKWTVLRPWLSNPLSAIFTT | 480 RLU | 542000 RLU | 480 RLU |
| ISOP120ER5P1B12 (designed binder, not shown: small tags and cut ends, FN3 domain (Centyrin); tested as E. coli lysate) LPAPKNLVVSRVTEDSARLSWTAPDAAFDSFAIYYIEWTAYGEAIVLTVPGSERSYDLTGLKPGTEYVVRISGVKCGIVSFPLSAIFTT | 800 RLU | 1.44e+06 RLU | 720 RLU |
| ISOP120FR5P1E10 (designed binder, not shown: small tags and cut ends, FN3 domain (Centyrin); tested as E. coli lysate) LPAPKNLVVSRVTEDSARLSWTAPDAAFDSFLIHYTEQPSKGEAIVLTVPGSERSYDLTGLKPGTEYQVPIGVKGGTQSCPLSAIFTT | 320 RLU | 953000 RLU | 240 RLU |
| ISOP120AR5P1B5 (designed binder, not shown: small tags and cut ends, FN3 domain (Centyrin); tested as E. coli lysate) LPAPKNLVVSRVTEDYARLSWKYGEHIIWFDSFLIQYQESEKVGEAIVLTVPGSERSYDLTGLKPGTEYTVSIYGVKGQHDHDSNPLSAIFTT | 320 RLU | 501000 RLU | 400 RLU |
| ISOP120FR5P1A6 (designed binder, not shown: small tags and cut ends, FN3 domain (Centyrin); tested as E. coli lysate) LPAPKNLVVSRVTEDSARLSWTAPDAAFDSFIIRYLEDISYGEAIVLTVPGSERSYDLTGLKPGTEYHVGIEGVKGGNVSFPLSAIFTT | 320 RLU | 1.4e+06 RLU | 400 RLU |
| ISOP120ER5P1F4 (designed binder, not shown: small tags and cut ends, FN3 domain (Centyrin); tested as E. coli lysate) LPAPKNLVVSRVTEDSARLSWTAPDAAFDSFVIRYIEDTVMGEAIVLTVPGSERSYDLTGLKPGTEYHVSIEGVKGGPSSLPLSAIFTT | 400 RLU | 537000 RLU | 320 RLU |
| ISOP120FR5P1H6 (designed binder, not shown: small tags and cut ends, FN3 domain (Centyrin); tested as E. coli lysate) LPAPKNLVVSRVTEDSARLSWTAPDAAFDSFGIPYLEDIEVGEAIVLTVPGSERSYDLAGLKPGTEYHVGIYGVKGGEQSFPLSAIFTT | 320 RLU | 357000 RLU | 320 RLU |
| ISOP120ER5P1H4 (designed binder, not shown: small tags and cut ends, FN3 domain (Centyrin); tested as E. coli lysate) LPAPKNLVVSRVTEDSARLSWTAPDAAFDSFNIMYLEDVQCGEAIVLTVPGSERSYDLTGLKPGTEYHVGINGVKGGLRSFPLSAIFTT | 560 RLU | 1.07e+06 RLU | 480 RLU |
| ISOP120HR5P1B5 (designed binder, not shown: small tags and cut ends, FN3 domain (Centyrin); tested as E. coli lysate) LPAPKNLVVSRVTEDSARLSWTAPDAAFDSFIIRYIEEGYYGEAIVLTVPGSERSYDLTGLKPGTEYHVGIEGVKGGYYSYPLSAIFTT | 240 RLU | 520000 RLU | 320 RLU |
| ISOP120ER5P1E5 (designed binder, not shown: small tags and cut ends, FN3 domain (Centyrin); tested as E. coli lysate) LPAPKNLVVSRVTEDSARLSWTAPDAAFDSFRISYLEDVYYGEAIVLTVPGSERSYDLTGLKPGTEYHVGIHGVKGGIDSFPLSAIFTT | 320 RLU | 413000 RLU | 240 RLU |
| ISOP120BR5P1D2 (designed binder, not shown: small tags and cut ends, FN3 domain (Centyrin); tested as E. coli lysate) LPAPKNLVVSRVTEDSARLSWIRKHNHVKWFDSFLIQYQESEKVGEAIVLTVPGSERSYDLTGLKPGTEYTVSIYGVGFLIDTDDSNPLSAIFTT | 240 RLU | 361000 RLU | 720 RLU |
| ISOP120AR5P1G8 (designed binder, not shown: small tags and cut ends, FN3 domain (Centyrin); tested as E. coli lysate) LPAPKNLVVSRVTEDSARLSWHATFGDPFDSFLIQYQESEKVGEAIVLTVPGSERSYDLTGLKPGTEYTVSIYGVGRHYTVYDSNPLSAIFTT | 320 RLU | 541000 RLU | 320 RLU |
| ISOP120AR5P1D9 (designed binder, not shown: small tags and cut ends, FN3 domain (Centyrin); tested as E. coli lysate) LPAPKNLVVSRVTEDSARLSWNTDWVHTFDSFLIQYQESEKVGEAIVLTVPGSERSYDLTGLKPGTEYTVSIYGVGRHYTVYDSNPLSAIFTT | 320 RLU | 636000 RLU | 320 RLU |
| ISOP120ER5P1E10 (designed binder, not shown: small tags and cut ends, FN3 domain (Centyrin); tested as E. coli lysate) LPAPKNLVVSRVTEDSARLSWTAPDAAFDSFEIYYMEDFHSGEAIVLTVPGSERSYDLTGLKPGTEYWVTIYGVEGGTGSLPLSAIFTT | 400 RLU | 810000 RLU | 720 RLU |
| ISOP120HR5P1F9 (designed binder, not shown: small tags and cut ends, FN3 domain (Centyrin); tested as E. coli lysate) LPAPKNLVVSRVTEDSARLSWTAPDAAFDSFYIYYREHWTIGEAIVLTVPGSERSYDLTGLKPGTEYLVTIYGVKGGAYSNPLSAIFTT | 400 RLU | 1.18e+06 RLU | 400 RLU |
| ISOP120HR5P1H4 (designed binder, not shown: small tags and cut ends, FN3 domain (Centyrin); tested as E. coli lysate) LPAPKNLVVSRVTEDSARLSWTAPDAAFDSFDILYLEPYQEGEAIVLTVPGSERSYDLTGLKPGTEYLVTIYGVKGGYYSLPLSAIFTT | 320 RLU | 630000 RLU | 480 RLU |
| ISOP120HR5P1G6 (designed binder, not shown: small tags and cut ends, FN3 domain (Centyrin); tested as E. coli lysate) LPAPKNLVVSRVTEDSARLSWTAPDAAFDSFEIYYFELRLGGEAIVLTVPGSERSYDLTGLKPGTEYLVTIYGVKGGLDSQPLSAIFTT | 320 RLU | 2.04e+06 RLU | 400 RLU |
| ISOP120HR5P1H8 (designed binder, not shown: small tags and cut ends, FN3 domain (Centyrin); tested as E. coli lysate) LPAPKNLVVSRVTEDSARLSWTAPDAAFDSFDIYYYELRLGGEAIVLTVPGSERSYDLTGLKPGTEYLVTIYGVKGGYYSGPLSAIFTT | 400 RLU | 2.22e+06 RLU | 320 RLU |
| ISOP120HR5P1G4 (designed binder, not shown: small tags and cut ends, FN3 domain (Centyrin); tested as E. coli lysate) LPAPKNLVVSRVTEDSARLSWTAPDAAFDSFEIYYREYWYSGEAIVLTVPGSERSYDLTGLKPGTEYLVTIYGVKGGWYSDPLSAIFTT | 480 RLU | 347000 RLU | 320 RLU |
| ISOP120AR5P1B12 (designed binder, not shown: small tags and cut ends, FN3 domain (Centyrin)) LPAPKNLVVSRVTEDSARLSWDGDKWANFKFDSFLIQYQESEKVGEAIVLTVPGSERSYDLTGLKPGTEYTVSIYGVGLHYIVYDSNPLSAIFTT | 480 RLU | 864000 RLU | 400 RLU |
| ISOP120BR5P1C1 (designed binder, not shown: small tags and cut ends, FN3 domain (Centyrin); tested as E. coli lysate) LPAPKNLVVSRVTEDSARLSWVREDAYAFDSFLIQYQESEKVGEAIVLTVPGSERSYDLTGLKPGTEYTVSIYGVSSLHWVVHDSNPLSAIFTT | 480 RLU | 438000 RLU | 480 RLU |
| ISOP120HR5P1E7 (designed binder, not shown: small tags and cut ends, FN3 domain (Centyrin); tested as E. coli lysate) LPAPKNLVVSRVTEDSARLSWTAPDAAFDSFQIYYLEQLGYGEAIVLTVPGSERSYDLTGLKPGTEYLVTIYGVKVCEQSYPLSAIFTT | 480 RLU | 363000 RLU | 480 RLU |
| ISOP120BR5P1E2 (designed binder, not shown: small tags and cut ends, FN3 domain (Centyrin); tested as E. coli lysate) LPAPKNLVVSRVTEDSARLSWAQELDHFDSFLIQYQESEKVGEAIVLTVPGSERSYDLTGLKPGTEYTVSIYGVYWTWWVRWNSNPLSAIFTT | 4960 RLU | 882000 RLU | 5680 RLU |
| ISOP120BR5P1F2 (designed binder, not shown: small tags and cut ends, FN3 domain (Centyrin); tested as E. coli lysate) LPAPKNLVVSRVTEDSARLSWTFHPTFEGFDSFLIQYQESEKVGEAIVLTVPGSERSYDLTGLKPGTEYTVSIYGVKWYAGIGYPVSNPLSAIFTT | 240 RLU | 299000 RLU | 400 RLU |
| ISOP120FR5P1E9 (designed binder, not shown: small tags and cut ends, FN3 domain (Centyrin); tested as E. coli lysate) LPAPKNLVVSRVTEDSARLSWTAPDAAFDSFIIYYPEYISNGEAIVLTVPGSERSYDLTGLKPGTEYHVTIGVKGGHSWPLSAIFTT | 400 RLU | 1.18e+06 RLU | 320 RLU |
